Results published in the RNAGym collection of RNA variant scans (doi:10.1021/acssynbio.7b00057).

B1: Pistol ribozyme (parent)
chain: GGGUCGUUGUUCCAUAAUCGCGUGGAUAUGGCACGCAAGUUUCUACCGGGCACCGUAAAUGUCCGACUGGAGCCGUUCGGGCGGCUAUAAACAGACCUCAGGCCCGAAGCGUGGCGGCACCUGCCGCCGGUGGUAAAAAAGAUCGGAAGAGCACACGUCU

Variants of: B1
Experiment: aptazyme ON/OFF ratio, guanine; higher = stronger switching; co-transcriptional cleavage with and without guanine

In order of rising “aptazyme ON/OFF ratio” value:
1. U7A U8A U10G U11C  1.03
2. U7A U8A U10G U11A  1.03
3. U7A U8C G9A U10G U11A C13U  1.04
4. U7A U8C G9A U10G U11A C13A  1.04
5. U7A U8C G9A U10C U11C C12A C13U  1.04
6. U7A U8C G9A U10C U11C C12U  1.04
7. U7A U8C G9A C13G  1.04
8. U7A U8C G9A U10G U11A C13G  1.05
9. U7A U8C G9A U10A U11G C12A  1.06
10. U7A U8C G9A U10C U11C C12G C13U  1.06
11. U7A U8C G9A U10C U11C C12G C13A  1.06
12. U7A U8A U10G C12A C13G  1.06
13. U7A U8C G9A U10G U11C C12U  1.06
14. U7A U8C G9A C12U C13A  1.07
15. U7A U8C G9A U10C U11C C12G C13G  1.07
16. U7A U8C G9A U10G U11A C12G C13G  1.07
17. U7A U8C G9A U10C U11C  1.08
18. U7A U8C G9A U10C U11C C12A C13A  1.08
19. U7A U8C G9A U10A U11C C12G C13A  1.09
20. U7A U8C G9A U10C U11A C12G C13U  1.09
21. U7A U8A U11A C13G  1.09
22. U7A U8C G9A U10C U11C C12A C13G  1.09
23. U7A U8C G9A C12U C13G  1.09
24. U7A U8C G9A U10G C13U  1.09
25. U7A U8C G9A U10C U11G C12A  1.09
26. U7A U8A U11G C12G C13A  1.1
27. U7A U8A U10C U11G C12U C13G  1.1
28. U7A U8A U10G U11C C12U  1.1
29. U7A U8C G9A U10C C12U C13G  1.1
30. U7A U8C G9A U10C U11A C12G C13A  1.1
31. U7A U8A U11G C13G  1.1
32. U7A U8C G9A C12U C13U  1.1
33. U7A U8C G9A U10C U11G C12G C13U  1.1
34. U7A U8C G9A U10A U11A C12U C13G  1.11
35. U7A U8A U11G C12A C13G  1.11
36. U7A U8A U10G U11C C12G C13G  1.11
37. U7A U8A U11A C13A  1.11
38. U7A U8A U11A C13U  1.11
39. U7A U8C G9A U10A C12U C13A  1.11
40. U7A U8C G9A U10G U11A C12G C13A  1.11
41. U7A U8C G9A U10C U11C C12G  1.11
42. U7A U8C C12A C13G  1.11
43. U7A U8C G9A U10A U11A C12A C13A  1.11
44. U7A U8C G9A U10G U11A C12A C13G  1.11
45. U7A U8C G9A U10C U11G C12A C13A  1.12
46. U7A U8A U10G C13G  1.12
47. U7A U8C G9A U10A C12U C13U  1.12
48. U7A U8C G9A C12G C13G  1.12
49. U7A U8C G9A U10A U11A C12U C13A  1.13
50. U7A U8A U10G C12U C13G  1.13
51. U7A U8A U10C U11G C13A  1.13
52. U7A U8A U11A C12G C13G  1.13
53. U7A U8C G9A C12G C13A  1.13
54. U7A U8C G9A C12A C13G  1.14
55. U7A U8C G9A U10C U11G C12A C13U  1.14
56. U7A U8C G9A U10A C12G C13A  1.14
57. U7A U8C G9A U10A U11C C12A C13A  1.14
58. U7A U8C G9A C13A  1.14
59. U7A U8A U10G U11A C13U  1.15
60. U7A U8A U11G C12A C13A  1.15
61. U7A U8C G9A U10G U11C C12U C13A  1.16
62. U7A U8C G9A U10G U11C C12U C13U  1.16
63. U7A U8A U10G U11A C12G C13G  1.16
64. U7A U8C G9A U10C U11G  1.16
65. U7A U8A U10G U11A C13G  1.16
66. U7A U8C C13G  1.16
67. U7A U8C G9A C12A C13U  1.16
68. U7A U8A U10G U11G C12A C13G  1.16
69. U7A U8A U11G C13A  1.16
70. U7A U8C G9A U10A U11G C12G  1.16
71. U7A U8A U11A C12G C13U  1.16
72. U7A U8C G9A U10A U11C C12G C13G  1.17
73. U7A U8A U10C U11G C13U  1.17
74. U7A U8C G9A U10C C12U C13A  1.17
75. U7A U8A U11C C12G  1.17
76. U7A U8A U10C U11G C12G C13A  1.17
77. U7A U8C G9A U10G C13A  1.17
78. U7A U8C G9A U10C U11A C13G  1.17
79. U7A U8A U11A C12G C13A  1.17
80. U7A U8C G9A U10G C12U C13G  1.18
81. U7A U8C G9A C12A C13A  1.18
82. U7A U8C G9A U10G U11C C12A C13A  1.18
83. U7A U8A U10C U11G C12G C13G  1.18
84. U7A U8C G9A U10A U11C C12A C13G  1.18
85. U7A U8C G9A U10C U11C C12A  1.18
86. U7A U8C G9A U10C U11A C13A  1.18
87. U7A U8C G9A U10A U11A C12A C13G  1.18
88. U7A U8C C12G C13A  1.18
89. U7A U8C G9A C13U  1.18
90. U7A U8A U10G U11A C13A  1.19
91. U7A U8A U10C U11G C12G C13U  1.19
92. U7A U8A U10G C12A C13U  1.19
93. U7A U8C G9A U10G U11C C12A  1.19
94. U7A U8C C12G C13G  1.19
95. U7A U8C G9A U10G U11A C12A C13A  1.19
96. U7A U8C G9A U10G U11C C12U C13G  1.2
97. U7A U8A U10G U11A C12G C13A  1.2
98. U7A U8C G9A U10A C12A C13A  1.2
99. U7A U8A U10C U11G C13G  1.2
100. U7A U8A U11G C12U C13A  1.2
101. U7A U8A U11G C13U  1.2
102. U7A U8C G9A U10A C12U C13G  1.2
103. U7A U8C G9A U10G C13G  1.2
104. U7A U8C G9A U10A U11G C12U C13A  1.2
105. U7A U8C G9A C12G C13U  1.2
106. U7A U8C G9A U10C C12A  1.21
107. U7A U8A U10G U11G C12A C13A  1.21
108. U7A U8A U10G C12A C13A  1.21
109. U7A U8C G9A U10A C12A C13G  1.22
110. U7A U8C G9A U10C U11A C12G C13G  1.22
111. U7A U8A U10G C13U  1.22
112. U7A U8C G9A U10G U11C C12G  1.22
113. U7A U8A U10C U11G C12U C13A  1.23
114. U7A U8C G9A U10G C12U C13A  1.23
115. U7A U8C G9A U10G U11C C12A C13U  1.23
116. U7A U8A U10G U11C C12G C13A  1.23
117. U7A U8C G9A U10C U11G C12U  1.23
118. U7A U8C G9A U10C U11G C12G C13A  1.23
119. U7A U8A U11G C12G C13G  1.24
120. U7A U8C G9A U10C U11A  1.24
121. U7A U8C C12A C13U  1.24
122. U7A U8C G9A U10A U11G C12U C13G  1.24
123. U7A U8C G9A U10G U11A C12A C13U  1.24
124. U7A U8C G9A U10G U11C C12A C13G  1.25
125. U7A U8A U11G C12U C13G  1.25
126. U7A U8C G9A U10A C12G C13G  1.25
127. U7A U8A U11A C12U C13U  1.25
128. U7A U8C G9A U10A U11C C12A C13U  1.25
129. U7A U8C G9A U10A U11A C12A C13U  1.25
130. U7A U8C C13A  1.26
131. U7A U8C G9A U10C C12U C13U  1.26
132. U7A U8C G9A U10C U11G C12G  1.27
133. U7A U8C G9A U10A C12G C13U  1.28
134. U7A U8A U11A C12U C13G  1.28
135. U7A U8C G9A U10C U11A C13U  1.28
136. U7A U8C C12A C13A  1.28
137. U7A U8C G9A U10C U11G C12U C13A  1.29
138. U7A U8C G9A U10C C12G  1.29
139. U7A U8A U11A C12U C13A  1.29
140. U7A U8C G9A U10C U11G C12G C13G  1.29
141. U7A U8C G9A U10A U11A C12U C13U  1.3
142. U7A U8A U10C U11G C12U C13U  1.3
143. U7A U8C G9A U10G U11A C12G C13U  1.3
144. U7A U8A U10G C13A  1.31
145. U7A U8C G9A U10A U11G C12U C13U  1.31
146. U7A U8A U10G U11C C12G  1.32
147. U7A U8C G9A U10C U11G C12A C13G  1.33
148. U7A U8A U10G U11G C12A C13U  1.34
149. U7A U8C G9A U10C U11G C12U C13G  1.35
150. U7A U8C G9A U10C C12U  1.35
151. U7A U8A U11G C12U C13U  1.35
152. U7A U8C C12G C13U  1.35
153. U7A U8C G9A U10A C12A C13U  1.36
154. U7A U8A U11C C12A  1.36
155. U7A U8A U10G U11G  1.38
156. U7A U8C G9A U10G C12U C13U  1.39
157. U7A U8A U10G U11C C12G C13U  1.39
158. U7A U8C G9A U10C U11G C12U C13U  1.41
159. U7A U8A U10G C12U C13U  1.42
160. U7A U8C G9A U10A U11G C12U  1.45
161. U7A U8A U11G C12G C13U  1.46
162. U7A U8A U11G C12A C13U  1.46
163. U7A U8A U11C C12U  1.48
164. U7A U8A U10G U11A C12G C13U  1.51
165. U7A U8A U10G C12U C13A  1.51
166. U7A U8C C13U  1.51
167. U7A U8A U10G U11C C12A  1.61
